The experiment concerns the target epidermal growth factor receptor (EGF receptor kinase), rat liver (rat (endogenous in rat liver)). As to the kind of experiment: polyethylene glycol precipitation of receptor-bound radioligand.

Substance “epidermal growth factor (EGF) (from UniProt P01132 977-1029) (ligand)” yielded a percent of 125I-EGF in endosomes that is receptor bound (10 ug EGF injected) of 77%.

The record behind these values is paper PMC2115937.
